Assays:
[1] = biological target: human thrombomodulin (hTBM) expressed from the B200 vector on porcine aortic endothelial cells (UniProt P07204)
collagen agonist = test: cell-based or functional assay; conditions: scale: % more aggregation than the monoallelic vWF edit blood

Chain of UniProt P07204 (P07204 whole entry, looked up): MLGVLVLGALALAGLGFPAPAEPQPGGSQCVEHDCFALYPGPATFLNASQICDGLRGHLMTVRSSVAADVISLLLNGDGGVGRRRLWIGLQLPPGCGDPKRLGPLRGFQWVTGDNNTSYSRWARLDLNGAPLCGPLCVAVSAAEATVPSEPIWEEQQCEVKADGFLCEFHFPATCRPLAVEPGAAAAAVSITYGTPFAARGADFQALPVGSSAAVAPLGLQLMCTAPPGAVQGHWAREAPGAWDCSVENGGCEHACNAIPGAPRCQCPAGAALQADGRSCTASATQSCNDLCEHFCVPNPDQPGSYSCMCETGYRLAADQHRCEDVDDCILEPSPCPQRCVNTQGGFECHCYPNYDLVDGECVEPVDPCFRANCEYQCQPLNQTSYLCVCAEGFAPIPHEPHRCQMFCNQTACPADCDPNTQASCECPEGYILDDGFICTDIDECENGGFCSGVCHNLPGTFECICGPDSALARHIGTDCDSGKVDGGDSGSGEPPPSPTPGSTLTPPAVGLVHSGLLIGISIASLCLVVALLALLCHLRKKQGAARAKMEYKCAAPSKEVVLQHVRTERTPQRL

whole blood platelet aggregation (Chrono-log Whole Blood Aggregometer) after collagen agonist (2 ug/mL) (collagen agonist)	Substance	activated protein C (APC) assay on pAEC: human thrombin and human Protein C added, Chromogenix S-2366 substrate, absorbance at 405 nm, nM APC/mg protein [1]
	human thrombin	pAEC from a transgenic pig expressing hTBM and hEPCR from the B200 vector showed a significantly elevated APC levels when compared to GTKO transgenic pig control
50	porcine von Willebrand factor (unmodified) (from UniProt Q28833 438-2482)	
